This note sets out measurements from the supplement of paper PMC7877785.

The data set is described as follows: self-splicing fitness, log relative to wild type (ln ratio); higher = more splicing; Tetrahymena group I intron in knt gene, E. coli kanamycin selection, DiMSum; sequences stand for … in CUCUCU…GGAGGGAAAAGUUAUCAGGCAUGCACCUGGUAGCUAGUCUUUAAACCAAUAGAUUGCAUCGGUUUAAAAGGCAAGACCGUCAAAUUGCGGGAAAGGGGUCAACAGCCGUUCAGUACCAAGUCUCAGGGGAAACUUUGAGAUGGCCUUGCAAAGGGUAUGGUAAUAAGCUGACGGACAUGGUCCUAACCACGCAGCCAAGUCCUAAGUCAACAGAUCUUCUGUUGAUAUGGAUGCAGUUCACAGACUAAAUGUCGGUCGGGGAAGAUGUAUUCUUCUCAUAAGAUAUAGUCGGACCUCUCCUUAAUGGGAGCUAGCGGAUGAAGUGAUGCAACACUGGAGCCGCUGGGAACUAAUUUGUAUGCGAAAGUAUAUUGAUUAGUUUUGGAGUACUCGUGGUCG
In a few lines: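 Library with all eight P1ex-region intron nucleotides randomised, intron inside the knt kanamycin-resistance gene on pET-22b(+), in E. coli BL21(DE3). Cells grew overnight at 37°C or 30°C on LB agar with or without 25 μg/mL kanamycin (plus 100 μg/mL carbenicillin, 50 μM IPTG, 0.2% rhamnose), in six replicate transformations. Pooled colonies were amplicon-sequenced on Illumina HiSeq 2500. DiMSum fitness is the error-weighted combination of wild-type-normalised replicate fold changes, kanamycin versus none.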

± gives the uncertainty stated by the source.

For UGCAAGCAAUAUUACGAGAC, the “self-splicing fitness (ln)” value (30 °C) was -4.03 ± 0.46 and the “self-splicing fitness (ln)” value (37 °C) is -2.05 ± 0.34.
For GAUCAGCAAUAUUACGUUAG, the “self-splicing fitness (ln)” value was -2.05 ± 0.12 (30 °C) and -1.92 ± 0.17 (37 °C).
On the same counts, the results for CAUGAGCAAUAUUACGUUAA are -3.17 ± 0.32 and -2.29 ± 0.26.
On the same counts, the results for CGGAAGCAAUAUUACGAGAG are -3.45 ± 0.49 and -1.65 ± 0.26.
For AGAGAGCAAUAUUACGUGUU, in that order: -3.21 ± 0.18 and -3.64 ± 0.36.
As to CUCAAGCAAUAUUACGGAUU, the “self-splicing fitness (ln)” value by setting is: (30 °C) -3.66 ± 0.17; (37 °C) -2.81 ± 0.19.
As to CUUCAGCAAUAUUACGGUAU, the “self-splicing fitness (ln)” value reads like this: (30 °C) -3.47 ± 0.35; (37 °C) -2 ± 0.2.
Consider GUGAAGCAAUAUUACGAUUG, for which the “self-splicing fitness (ln)” value (30 °C) is -1.38 ± 0.11 and the “self-splicing fitness (ln)” value (37 °C) was -1.78 ± 0.14.
For GUCAAGCAAUAUUACGACUG, in that order: -4.59 ± 0.27 and -4.75 ± 0.45.
As to UAGUAGCAAUAUUACGCACC, the “self-splicing fitness (ln)” value (37 °C) is -0.0165 ± 0.38.
In the case of GAAAAGCAAUAUUACGCCUU, the “self-splicing fitness (ln)” value (30 °C) was -0.813 ± 0.11 and the “self-splicing fitness (ln)” value (37 °C) is -0.558 ± 0.13.
On the same counts, the results for CCAAAGCAAUAUUACGCCUG are -0.536 ± 0.055 and -0.707 ± 0.07.
As for GCCAAGCAAUAUUACGGGUU, the “self-splicing fitness (ln)” value (30 °C) was -2.48 ± 0.09 and the “self-splicing fitness (ln)” value (37 °C) was -1.79 ± 0.1.
For CGGCAGCAAUAUUACGACGC, in that order: -3.45 ± 0.28 and -0.355 ± 0.21.
On the same counts, the results for AUCAAGCAAUAUUACGCUCG are -0.803 ± 0.091 and -0.236 ± 0.11.
On the same counts, the results for CGGCAGCAAUAUUACGCUCU are -2.11 ± 0.14 and -0.612 ± 0.16.
Regarding AUGAAGCAAUAUUACGAUAC, the “self-splicing fitness (ln)” value is -0.832 ± 0.11 (30 °C) and -1.5 ± 0.17 (37 °C).
CUGCAGCAAUAUUACGCUAA: the “self-splicing fitness (ln)” value (30 °C) is -3.28 ± 0.29.
As for CUCGAGCAAUAUUACGUAAG, the “self-splicing fitness (ln)” value reads like this: (30 °C) -2.81 ± 0.17; (37 °C) -1.26 ± 0.18.
On the same counts, the results for AAACAGCAAUAUUACGAUCC are -1.8 ± 0.088 and -0.41 ± 0.11.
On the same counts, the results for CCAGAGCAAUAUUACGACGU are -3.74 ± 0.27 and -3.28 ± 0.47.
For AAUAAGCAAUAUUACGAUAG, in that order: -3.78 ± 0.32 and -2.13 ± 0.24.
GACCAGCAAUAUUACGCUCU: the “self-splicing fitness (ln)” value by setting is: (30 °C) -0.6 ± 0.061; (37 °C) 0.0283 ± 0.089.
For GUCAAGCAAUAUUACGUUUA, in that order: -1.92 ± 0.096 and -0.845 ± 0.091.
For UCUCAGCAAUAUUACGGCCA, in that order: -2.65 ± 0.19 and -1.69 ± 0.21.
On the same counts, the results for CCGCAGCAAUAUUACGUUCU are -3.87 ± 0.19 and -3.16 ± 0.26.
Consider UUAAAGCAAUAUUACGGACU, for which the “self-splicing fitness (ln)” value is -0.204 ± 0.096 (30 °C) and -0.0989 ± 0.11 (37 °C).
On the same counts, the results for GGCGAGCAAUAUUACGGUCA are 0.0811 ± 0.15 and -0.103 ± 0.13.
For ACUCAGCAAUAUUACGCCCU, in that order: -0.136 ± 0.15 and 0.51 ± 0.17.
For ACGAAGCAAUAUUACGCUAC, in that order: -2.09 ± 0.14 and -2.81 ± 0.15.
On to GGUGAGCAAUAUUACGUAUA, for which the “self-splicing fitness (ln)” value is -3.76 ± 0.29 (30 °C) and -3.25 ± 0.37 (37 °C).
With AGGGAGCAAUAUUACGACGC, the “self-splicing fitness (ln)” value (37 °C) was -1.54 ± 0.45.
GAAUAGCAAUAUUACGUUUG: the “self-splicing fitness (ln)” value by setting is: (30 °C) -1.61 ± 0.15; (37 °C) -1.05 ± 0.15.
On the same counts, the results for ACUAAGCAAUAUUACGAUGG are -0.371 ± 0.1 and -0.661 ± 0.16.
With CAGUAGCAAUAUUACGAGGC, the “self-splicing fitness (ln)” value was -3.19 ± 0.17 (30 °C) and -2.94 ± 0.3 (37 °C).
In the case of CCUAAGCAAUAUUACGAUCC, the “self-splicing fitness (ln)” value (30 °C) is -3.83 ± 0.29.
Take UGACAGCAAUAUUACGAUAA: the “self-splicing fitness (ln)” value is -0.561 ± 0.052 (30 °C) and 0.4 ± 0.072 (37 °C).
For AAGUAGCAAUAUUACGAGAA, in that order: -2.44 ± 0.22 and -2.05 ± 0.44.
On the same counts, the results for CGAUAGCAAUAUUACGUACU are -1.12 ± 0.081 and -0.791 ± 0.12.
For AUGCAGCAAUAUUACGAUGC, in that order: -2.06 ± 0.14 and -0.432 ± 0.14.
On to UGUGAGCAAUAUUACGGGCU, for which the “self-splicing fitness (ln)” value by setting is: (30 °C) -0.671 ± 0.38; (37 °C) -1.48 ± 0.46.
Regarding GAUAAGCAAUAUUACGAAAU, the “self-splicing fitness (ln)” value was -1.13 ± 0.13 (30 °C) and -1.11 ± 0.15 (37 °C).
On the same counts, the results for GACCAGCAAUAUUACGAGAC are -0.715 ± 0.15 and -1.49 ± 0.18.
On to ACUAAGCAAUAUUACGCAAA, for which the “self-splicing fitness (ln)” value runs as follows: (30 °C) -2.51 ± 0.24; (37 °C) -1.77 ± 0.24.
On the same counts, the results for AGGGAGCAAUAUUACGGAUG are -4 ± 0.33 and -2.6 ± 0.31.
For UUGAAGCAAUAUUACGUUCG, in that order: -0.397 ± 0.065 and 0.0406 ± 0.088.
On the same counts, the results for UAGCAGCAAUAUUACGCCUC are -3.28 ± 0.16 and -1.11 ± 0.12.
As to GCAUAGCAAUAUUACGUUUC, the “self-splicing fitness (ln)” value (30 °C) is -4.77 ± 0.26 and the “self-splicing fitness (ln)” value (37 °C) is -3.01 ± 0.15.
On the same counts, the results for AACAAGCAAUAUUACGGACG are -1.3 ± 0.061 and -0.887 ± 0.086.
For AGGAAGCAAUAUUACGCUCG, in that order: -0.643 ± 0.16 and -0.865 ± 0.21.
For ACGAAGCAAUAUUACGCUAU, in that order: -0.928 ± 0.06 and -1.48 ± 0.078.
For the sequence GGCUAGCAAUAUUACGGAGC, the “self-splicing fitness (ln)” value (30 °C) is -3.22 ± 0.22 and the “self-splicing fitness (ln)” value (37 °C) was -2.25 ± 0.26.
For GCAAAGCAAUAUUACGACCU, in that order: -1.17 ± 0.13 and 0.204 ± 0.16.
In the case of UCUUAGCAAUAUUACGACCG, the “self-splicing fitness (ln)” value reads like this: (30 °C) -1.95 ± 0.36; (37 °C) -0.528 ± 0.34.
As for AUGCAGCAAUAUUACGCAUU, the “self-splicing fitness (ln)” value by setting is: (30 °C) -3.49 ± 0.11; (37 °C) -3.37 ± 0.19.
For GAGCAGCAAUAUUACGGUUG, in that order: -3.18 ± 0.17 and -1.99 ± 0.16.
For UCCAAGCAAUAUUACGGAUC, in that order: -3.49 ± 0.15 and -2.9 ± 0.16.
For the sequence CAGUAGCAAUAUUACGUUUG, the “self-splicing fitness (ln)” value is, setting by setting: (30 °C) -1.35 ± 0.08; (37 °C) -0.625 ± 0.11.
As for AGGGAGCAAUAUUACGCCCA, the “self-splicing fitness (ln)” value (37 °C) was -0.897 ± 0.34.
Turning to UGGAAGCAAUAUUACGACCU, the “self-splicing fitness (ln)” value (30 °C) came out at 0.308 ± 0.11 and the “self-splicing fitness (ln)” value (37 °C) came out at 0.699 ± 0.12.
For ACGCAGCAAUAUUACGAAAG, in that order: -3.33 ± 0.21 and -2 ± 0.19.
For CUAGAGCAAUAUUACGGGAA, in that order: -4.25 ± 0.35 and -2.45 ± 0.45.
For UGUCAGCAAUAUUACGGAUG, in that order: -2.07 ± 0.088 and -0.996 ± 0.1.
UCUAAGCAAUAUUACGUCAA: the “self-splicing fitness (ln)” value (30 °C) was -2.57 ± 0.24 and the “self-splicing fitness (ln)” value (37 °C) is -1.77 ± 0.27.
Regarding UUUCAGCAAUAUUACGGUAU, the “self-splicing fitness (ln)” value (30 °C) was -3.02 ± 0.19 and the “self-splicing fitness (ln)” value (37 °C) is -1.67 ± 0.15.
On the same counts, the results for GACCAGCAAUAUUACGUGAC are -1.27 ± 0.069 and -1.7 ± 0.11.
For UUACAGCAAUAUUACGUUGA, in that order: -1.57 ± 0.1 and -0.574 ± 0.1.
For AGAUAGCAAUAUUACGCACC, in that order: 0.321 ± 0.21 and 0.267 ± 0.34.
In the case of AGUUAGCAAUAUUACGAGUU, the “self-splicing fitness (ln)” value runs as follows: (30 °C) -1.5 ± 0.086; (37 °C) -0.514 ± 0.11.
Take AACAAGCAAUAUUACGUUGG: the “self-splicing fitness (ln)” value runs as follows: (30 °C) -3.76 ± 0.13; (37 °C) -3.31 ± 0.18.
For UUAGAGCAAUAUUACGGUAA, in that order: -1.34 ± 0.086 and -0.0767 ± 0.11.
Regarding UAUGAGCAAUAUUACGUCAA, the “self-splicing fitness (ln)” value (37 °C) was -2.59 ± 0.38.
AAUAAGCAAUAUUACGGCCU: the “self-splicing fitness (ln)” value by setting is: (30 °C) -0.0966 ± 0.09; (37 °C) -0.0762 ± 0.13.
On the same counts, the results for AUAAAGCAAUAUUACGGCCU are 0.372 ± 0.11 and 0.382 ± 0.14.
For CGCAAGCAAUAUUACGUUCA, in that order: -1.33 ± 0.1 and -0.636 ± 0.098.
On the same counts, the results for GUUAAGCAAUAUUACGGGUA are -2.01 ± 0.14 and -1.39 ± 0.12.
In the case of GCGGAGCAAUAUUACGAAUU, the “self-splicing fitness (ln)” value (37 °C) was -1.1 ± 0.33.
